No end group written: not given here.

The series concerns the molecule itself. Nature of the series: cross-linking; disulfide cross-linking of engineered terminal Cys residues; purified fragments on SDS-PAGE under non-reducing conditions (only a monomer band under reducing conditions).

B1: CC2: EFhd2 coiled-coil domain (residues 199-240) with GlyGlyCys at the C-terminus (domain or fragment, human)
chain: QAINVSSRFEEEIKAEQEERKKQAEEMKQRKAAFKELQSTFKGGC
modifications: also: disulfide-linked dimer via Cys
notes: human EFhd2/Swiprosin-1 predicted coiled-coil domain, residues 199-240; engineered GlyGlyCys at the C-terminus of the fragment; source: E. coli, purified (modified pET-21a, same procedure as the other EFhd2 proteins); not shown: His6, N-terminal, kept
Take B1: the stoichiometry N (in general, the number of molecules, sites or subunits per partner or assembly) is 2.

B2: CC1: EFhd2 coiled-coil domain (residues 199-240) with CysGlyGly at the N-terminus (domain or fragment, human)
chain: CGGQAINVSSRFEEEIKAEQEERKKQAEEMKQRKAAFKELQSTFK
notes: engineered CysGlyGly at the N-terminus of the fragment; human EFhd2/Swiprosin-1 predicted coiled-coil domain, residues 199-240; source: E. coli, purified (pGEX-4T-1; GST removed by thrombin); not shown: GST, N-terminal, cleaved
In the case of B2, the “stoichiometry N” value stood at 2.

For the origin of these results see article PMC5156911, “Structural implications of Ca^2+-dependent actin-bundling function of human EFhd2/Swiprosin-1” (Scientific Reports, 2016).
